Measured values: patent publication US20250034594A1, “RNA-GUIDED GENOME RECOMBINEERING AT KILOBASE SCALE” (THE BOARD OF TRUSTEES OF THE LELAND STANFORD JUNIOR …, priority 2021, published 2025)

Tests used:
Assay type in all cases: cell-based
[1] = tested on: gene editing with Cas9; experiment: Screen of 322 new SSAP proteins, gene editing activity with Cas9 (Table 5); parameters: Cas9 with SSAP activity: scale not given here
How it was run: (§1)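 First, 322 new single-strand annealing proteins are identified from sequences. Next they are synthesized. Finally each is assayed for editing in combination with Cas9 and, separately, dCas9.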

[2] = tested on: gene editing with Cas9 and dCas9; experiment: Screen of 322 new SSAP proteins, activity across all experiments (Cas9 and dCas9, Table 5); parameters: scale not given here
How it was run: as §1

[3] = tested on: gene editing with dCas9; experiment: Screen of 322 new SSAP proteins, gene editing activity with dCas9 (Table 5); parameters: dCas9 with SSAP activity: scale not given here
How it was run: as §1

Molecule	Cas9 with SSAP activity [1]	Cas9 with SSAP activity (normalized) [1]	Activity across all experiments [2]	dCas9 with SSAP activity [3]	dCas9 with SSAP activity (normalized) [3]
SSAP_11: SEQ ID NO: 180; Bet Lactococcus phage phiLC3 (protein, listed as Lactococcus lactis) ANEIDIYDAKNLNTATVKKFLKGGGQASDEELAMLLAISRNQNMNPFMKEVYFIKYGSAAAQIVVSRDFYRKRAFQNPNFAGIEVGVIVLNKDGVLEHNEGTFKTKDQELVGAWARVHLKNTEIPVYVAVSYDEYVQMKNGQPNSMWTNKPCTMLGKVAESQALRMAFPAEFSGTYGEEEYPEPEKEPREVNGVKEPDRAQIESFDKENYAARKIEELKEKAQPQKEFVEEIGEAIDEITAEDF	−1.791	−0.870	−1.223	−0.655	−0.866
SSAP_71: SEQ ID NO: 240 (protein) SNNELLAKPVEFEVNGEAVKLTGKTVKNFLVSGNGEVSDQEVVMFINLCKYQKLNPFLNEAYLVKFKSKSGPDKPAQVIVSKEAFMKRAEKHPNYEGFEAGIIVERDGQLVDIEGAIKLTNDKLVGGWARVYRSDRQKPITTRISLSEFSKGQSTWNSMPLTMIRKSAIVNAQREAFPETLGALYTEDDAKLDTTSSHDQEQVIEQEIKTKANQEVIDVEYTEESEQKSPQQEQTETTQAGPGF	−1.797	−2.283	−1.249	−0.701	−0.555
SSAP_69: SEQ ID NO: 238 (protein) ETIDIKQELASQAQTDSKKEVKLTKAMSIAEMIKAMMPEIKRALPSMITPERFTRIALSALNNTPELQACTPMSFISALLNAAQLGLEINSPLGHAYLIPYKNKGVLECQFQIGYLGLIALAYRNELMQTIQAQCVYENDEFLYEYGLNPKLVHRPATSDRGEPVFFYGLFKMINSGFGFCVMSKQEMDEFARTYSKGLASSFSPWKTSYNEMAKKTVIKQALKYAPIKTDFQKALSTDESIKYAISEDMTEAVNEIVSQNTEVA	−5.286	−0.810	−3.014	−0.742	−0.240
SSAP_66: SEQ ID NO: 235 (protein) TNQLAHKDFFNTPAVKQKFQEVLNGNERQFTASLLSIVNNNKLLARASNTSIMTAAMKAAVLNLPIEPSLGFAYIVPYGQDAQFQLGYKGLIQLAIRSGQFKAINSGKVYKAQFKSYDPLFETLDIDFTQPEDEVYGYFATFELVNGFKKLTFWTKEQAESHGKRFSKTYAKGPWSTDFDAMAQKTVLKSILSKYAPLSTEMQEGLISDNQTEEVETDPIDVTPKNEDTQTLLSDLMSDEAESETEKV	0.370	0.407	0.082	−0.205	−0.040
SSAP_233: SEQ ID NO: 402; Actinoplanes italicus (protein, listed as Actinoplanes italicus) PETIANAVAQRDQSPTALVADYRNDFAAVLPSHLPPATFVRLAQGVLRRDQNLMRTAMNNPGSLMTAMLDCARLGHEPGTPAYYFVPIKGAIEGWEGYRGVIERIYRAGAVQSVRAEVVRENDFYEYEEGMPHPIHRYERFASPEQRGPLLGVWAYAVMLDGGMSRPVEMGREEVLAHRDMNPSNNRSDSPWKKWERSMWLKCAVHELEKWVPSSTEYRREIARMSAPQPAAAAAPVTYVPPQVGQRDAIEGEVAEDWPEPAEVPGGAQ	−2.628	−0.424	−1.424	−0.220	−0.063
SSAP_316: SEQ ID NO: 485; Companilactobacillus kedongensis (protein, listed as Companilactobacillus kedongensis) MKDLARIPVKELVRSDTIKSKFNDVLGKRAPQFISSIVNIVNSNQDLKNVDQTSVISSALVAASLDLPINQSFGYMYLVPYSGKAQPQMGYKGYIQLAQRSGQYKRLNAISVSKEKVPDKMVIFIPDYRMEEAETQIDMYQDHIEDVKAGRVEPTRCGKCDYCKSTAKLGKIVSMDDLID	0.465	0.410	−0.150	−0.764	−0.279
SSAP_114: SEQ ID NO: 283; Methylomonas rhizoryzae (protein, listed as Methylomonas rhizoryzae) SELLSALNAPETQKPQTLPAMLKQHQPRFKAIAPRDVDVTRFSAALMADVRSNQKLAECNPMTVLGAFIRSTQLGLEPGSQLGQAYFVPFKGECQLVIGYRGMIELAYRSGKVASISARTVYENDVFEWELGTDERITHKPATGDRGALVAVYAMAKLTTGGIHFEVLDLAEIEKAKRASKSSSFGPWKDHFEEMAKKTAIRRLFKYLPVGTDLTRAVALDEKAESGSQQNDIEAETVLDGEFYPAGGGNDG	−7.755	−1.412	−9.340	−10.925	
SSAP_77: SEQ ID NO: 246 (protein) TNNQLVEAKGDFLTNPQLLNSGIIRKYLDPQGKASDEELAYFIAQAKAQNLNPFTKEIYFIKYGTQPAQIVTAKSAFEKKADSHPQFDGKEAGVIYLLDGEIKYSKGAFIPKGAEILGGWAKVYRKDRTYPTETEVSFEEYDNSKIRARVKELTQQGKDVTYPVMNSYGKPIGENNWDTMPCVMIRKVALVSAYREAFPAELGASYEADEIQLDNTPKDITPQENREDVIARKMAQIEQFNKEQAHTDPEPTQTEEPIQGELLDGELEY	−10.167		−10.167	−10.167	
SSAP_269: SEQ ID NO: 438; Candidatus Parcubacteria bacterium (protein, Candidatus Parcubacteria bacterium) TEYKRPQQPEQTKMLSAKLNQAGAPNKVSSFDVQLRDWFKKHSRKMQTLAGSKEEANKIITSLIFVAQRNPKLMTCTMESIGECLMQSAQLKLYPGPLQECAYVPFGNRATFMPQYQGLCKLAYNSGVVRSIATEVVYANDLFEFELGTNAYLRHVPTLSDNRGERIAAWCVVKTTHGEVIIVKPISFIEGIRKRSPAGNKKDSPWNTSDDDYDAMARKTVLKQALKTIPKSSDLAAAIQVDNAVESGSVDNVVTHIEPVTDPTPEETKE	−7.746	−2.190	−8.768	−9.789	
SSAP_91: SEQ ID NO: 260; Proteus mirabilis (protein, listed as Proteus mirabilis) SNPPLAQADLQKTQGTEVKTKTKDQQLIHFINQPSMKTQLAAALPRHMTPDRMIRIVTTEIRKTPALANCDMQSFIGAVVQCSQLGLEPGNALGHAYLLPFGNGKAKSGQSNVQLIIGYRGMIDLARRSNQIISISARTVRQGDSFHFEYGLNENLTHVPGENEDSPITHVYAVARLKDGGVQFEVMTHNQIEKVRASSKAGQNGPWVSHWEEMAKKTVIRRLFKYLPVSIEMQKAVILDEKAEANVDQENASVFEGEFEEVGSNGN	0.635	0.826	0.114	−0.407	−0.170
SSAP_279: SEQ ID NO: 448; Dorea sp. 42_8 (protein, listed as Dorea sp.) AVNNSLAKRDQSMKLSVYLQNDAVKKQINQVVGGKNGTRFISSIVSAVQSTPALQECTSPSIVNAALLGEALNLSPSPQLGQFYMVPFDNRKKGCKEAQFQLGYKGYIQLAERSGYYKKLNVLAIKEGELIRYDPLDEEIEVELIDDDVIREETPAMGYYAMFEYENGFCIQQKWRSEDFGTFRAGQNSGKGSLEVFFFLVQRF	−2.825	−3.398	−6.593	−10.362	−2.349
SSAP_102: SEQ ID NO: 271; Halomonas coralii (protein, listed as Halomonas coralii) TDQATAEPQEDLGKQLQQHSQRKPMPTTIQGMLKDDRFTGQIARALPKHITPDRISRIALTEVNKTPALGKCDPMSLFGSIIQSAQLGLELGGALGHAYLVPYKDQAQFIIGYRGMIDLARRSGQMVSLQAHTVHENDDFEFEYGLDEKLRHVPARGQRGPMIAVYAVAKLTGGGHQIEVMWKEDVDAIRQQSKAGNSGPWRDHYEEMAKKTAIRRLFKYLPVSVEMQKAVSLDEQAEAGVQDNNVFDGEFSYQEPE	−0.118	−0.065	−0.451	−0.784	−0.325
SSAP_187: SEQ ID NO: 356; Staphylococcus warneri (protein, listed as Staphylococcus warneri) ATQNDFKNQITDKKENKPQQSTNPRQVASDLLERMKPEIAKALPAHMSQDRMTRIALSAVNSNPKLSEVILNNPTSFLGALMQSAQLGLEPNTNLGHAYLIPYGNIVQLQLGYLGLLELAYRSGKYQKIMAMPVYKDDFFEYQYGTDEKLNHIPAQQQTGDAVGYYAFYKLTNGGTHFVYWSRQKMNMHQQQYSKGGNVWRNNFDAMALKTVIKDVLKYAPKSIEMGEAVTSDNNNFDFKDGGDIIDVTDYETEEN	0.257	0.239	−0.120	−0.498	−0.164
